Reference: patent publication US20070122406A1
Values joined by “and” are separate entries in the source; they are usually repeats but may differ in a detail not shown here. Equal values may be shown once. Read-outs that look alike come from different tables or passages of the source.

How the values were obtained:
FcgRI = test: SPR
[1] = molecular target: extracellular domain of Ep-CAM (DIGylated) (UniProt P16422); test: antigen binding
[2] = molecular target: recombinant human Ep-CAM/Fc (R&D Systems) (human) (UniProt P16422); test: SPR
recombinant human Ep-CAM/Fc (R&D Systems) (human), sequence (P16422 24-265): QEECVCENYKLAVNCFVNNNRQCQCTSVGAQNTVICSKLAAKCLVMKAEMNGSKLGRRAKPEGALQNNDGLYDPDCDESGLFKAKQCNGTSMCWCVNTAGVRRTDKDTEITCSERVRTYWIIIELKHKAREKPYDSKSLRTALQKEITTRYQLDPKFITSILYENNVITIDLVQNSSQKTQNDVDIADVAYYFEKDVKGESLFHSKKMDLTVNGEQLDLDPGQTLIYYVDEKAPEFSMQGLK

[3] = molecular target: recombinant human Ep-CAM/Fc (R&D Systems) (human) (UniProt P16422); test: SPR; remark: listed apart in the source

extracellular domain of Ep-CAM (DIGylated), sequence (P16422 24-265): as above

H3.77_L3 S239D IgG1 (from UniProt P01857 1-330)
Kd (FcgRI): 1.37 nM

Wild-type IgG1 Ep-CAM antibody (17-1A H0L0 variable regions, chimeric human IgG1)
EC50 [1]: 1.9E-07 ? and 2.5E-07 ? | Kd [2]: 159 nM | Kd [3]: 158 nM
